Measurements published in doi:10.1101/2023.08.25.554789.

Columns and labels:
[1] = molecular target: apCC-Hex-LLIA; assay: crystal structure
[2] = molecular target: apCC-Hex-LLIA; assay: AUC

stoichiometry N [1]: 6
stoichiometry N [2]: 6
Substance: apCC-Hex-LLIA (peptide)
